Measured values as given in patent publication US20140134170A1, “USE OF INHIBITORS OF EGFR-FAMILY RECEPTORS IN THE TREATMENT OF HORMONE REFRACTORY BREAST CANCERS” (MERRIMACK PHARMACEUTICALS, INC., priority 2011, published 2014).

B1: MM-121: fully human anti-ErbB3 monoclonal antibody; VH and VL SEQ ID NOs: 1 and 2; heavy and light chains SEQ ID NOs 42 and 43 (antibody, listed as Homo sapiens)
heavy: EVQLLESGGGLVQPGGSLRLSCAASGFTFSHYVMAWVRQAPGKGLEWVSSISSSGGWTLYADSVKGRFTISRDNSKNTLYLQMNSLRAEDTAVYYCTRGLKMATIFDYWGQGTLVTVSSASTKGPSVFPLAPCSRSTSESTAALGCLVKDYFPEPVTVSWNSGALTSGVHTFPAVLQSSGLYSLSSVVTVPSSNFGTQTYTCNVDHKPSNTKVDKTVERKCCVECPPCPAPPVAGPSVFLFPPKPKDTLMISRTPEVTCVVVDVSHEDPEVQFNWYVDGVEVHNAKTKPREEQFNSTFRVVSVLTVVHQDWLNGKEYKCKVSNKGLPAPIEKTISKTKGQPREPQVYTLPPSREEMTKNQVSLTCLVKGFYPSDIAVEWESNGQPENNYKTTPPMLDSDGSFFLYSKLTVDKSRWQQGNVFSCSVMHEALHNHYTQKSLSLSPGK
light: QSALTQPASVSGSPGQSITISCTGTSSDVGSYNVVSWYQQHPGKAPKLIIYEVSQRPSGVSNRFSGSKSGNTASLTISGLQTEDEADYYCCSYAGSSIFVIFGGGTKVTVLGQPKAAPSVTLFPPSSEELQANKATLVCLVSDFYPGAVTVAWKADGSPVKVGVETTKPSKQSNNKYAASSYLSLTPEQWKSHRSYSCRVTHEGSTVEKTVAPAECS

How the values were obtained:
[1] = system: estrogen receptor alpha (pER, ser 167 and ser 118); test: Western blot/densitometry for phosphorylated estrogen receptor in ligand-stimulated MCF7 cells; format: cell-based, human; conditions: for phosphorylation of the estrogen receptor in stimulated cells: MCF7 cells without MM-121, stimulated 30 minutes, betacellulin relative to heregulin
Excerpt: (§1) FIG. 1 comprises images of western blots of a gel of lysates from untreated control cells (“C”), cells pretreated with (“MM121”) or without pretreatment with MM-121 that were stimulated with heregulin beta 1 (“HRG”), betacellulin (“BTC”), or estrogen (“E2”).
FIG. 2 is a graph showing densitometry results from the relevant (pER) band in each of the control (“Con.”), heregulin (“HRG”), betacellulin (“BTC”), heregulin plus MM-121 (“HRG+MM121”) and betacellulin plus MM-121 (“BTC+MM121”) lanes in FIG. 1. Band density was normalized to GAPDH density and the normalized density (Y-axis) is shown for control and stimulated cells (both with and without MM-121 pretreatment) as indicated on the X-axis. The arrowhead between the HRG and BTC lanes indicates the pER band in the HRG lane.
(§2) MCF7 cells are either untreated or pretreated with MM-121 (250 nM) for 1 hour. Cells are then stimulated with heregulin betal (EGF domain, 10 nM R&D systems), betacellulin (20 nM, R&D systems) or estrogen (beta estradiol—100 nM, Sigma) for 30 minutes, or left unstimulated. Lysates of the cells are analyzed by western blot probed for pER and for pErbB3.
(§3) Cells were either untreated or pretreated with MM-121. Untreated and pretreated cells were stimulated with heregulin, betacellulin, or estrogen. Cell lysates were analyzed by western blot for phosphorylated forms of ErbB3 and estrogen receptor.

[2] = target: T1, ErbB3 (pErbB3) (Homo sapiens, UniProt P21860); test: Western blot for phosphorylated ErbB3 in ligand-stimulated MCF7 cells; format: cell-based; conditions: for phosphorylation of ErbB3 in stimulated cells: MCF7 cells without MM-121, stimulated 30 minutes, betacellulin relative to heregulin
T1 construct: endogenous in cells; host or cells: MCF7
Method: as §1, §2, §3

[3] = system: MCF-7CA tumors; test: Letrozole-resistant MCF-7CA intratumoral aromatase xenograft model; format: in vivo, mice; conditions: for tumor growth during initial treatment: MM-121 600 μg Q3D i.p., letrozole 10 μg/mouse/day, treatment from the start; for tumor volume after acquired letrozole resistance: letrozole-resistant tumors re-grouped at about 14 weeks, followed to 19 weeks
Method: To investigate the mechanism of AI resistance, a xenograft model was developed that corresponds to ER+ postmenopausal breast cancer. Tumors for this intratumoral aromatase xenograft model are grown from MCF7 human breast adenocarcinoma cells that have been stably transfected with a human placental aromatase gene to provide a non-ovarian source of estrogen production in ovariectomized athymic mice (MCF-7CA, see e.g. Brodie et al., Clinical Cancer Research 884s Vol. 11, 884s-888s, Jan. 15, 2005 (Suppl.)). Sufficient estrogen is produced (from aromatization of injected androstenedione) by the MCF7-CA cells to stimulate their proliferation and tumor formation. This is a model of a postmenopausal breast cancer patient with tumors that express aromatase and are free of gonadotropin feedback regulation.
MCF-7CA cells were cultured in Eagle's minimum essential medium containing 5% fetal bovine serum and neomycin. The culture medium was changed twice weekly. Subconfluent MCF-7CA cells were scraped into Hank's solution and centrifuged at 1,000 rpm for 2 min at 4° C. The cells were then resuspended in Matrigel™ (10 mg/ml) to make a cell suspension of 2-5×10^7 cells/ml. Ovariectomized female BALB/c athymic mice 4-6 weeks of age (20-22 g body weight) were housed in a pathogen-free environment under controlled conditions of light and humidity and received food and water ad libitum. Each mouse was inoculated subcutaneously (s.c.) with 0.1 ml of the cell suspension. Animals were then injected s.c. daily with 0.1 mg androstenedione/mouse. Growth rates were determined by measuring the tumors with calipers weekly. Tumor volumes were calculated according to the formula for a sphere (4/3 r12. r 2). When tumors reached a measurable size, mice were divided into groups of 10 animals with equivalent tumor volumes (300 mm^3). Mice were treated with 0.1 ml compounds in 0.3% hydroxypropylcellulose (HPC) for 6 weeks.
Tumors were measured weekly and tumor volume was calculated. Mice were sacrificed if tumors continued to grow to volumes of greater than about 1400-1700 mm^3.

[4] = system: TAMR-1, TAMR-7, or TAMR-8 cells (tamoxifen-resistant human mammary carcinoma xenografts); test: Tamoxifen-resistant MCF7 variant xenografts, MM-121 monotherapy; format: in vivo; conditions: 600 μg per mouse IP every three days; TAMR xenografts in nude mice
Method: Analyses of the anti-tumor efficacy and tolerability of MM-121 treatment of ER+ hormone refractory mammary tumor-bearing mice are carried out using xenografts of tamoxifen-resistant variants of MCF7 human mammary carcinoma cells. Tamoxifen-resistant human mammary carcinoma cell lines TAMR-1, TAMR-7, and TAMR-8 cells are obtained from the laboratory of A. E. Lykkesfeldt (Department of Tumor Endocrinology, Division for Cancer Biology, Danish Cancer Society. Strandboulevarden 49, DK-2100 Copenhagen 0, Denmark). These are grown as xenografts in female athymic nu+/nu+ nude mice obtained from Charles River Laboratories International. […]
To investigate anti-tumor efficacy in monotherapy, MM-121 or vehicle control (100 μL) is given to tumor-bearing mice (i.e., after 14 days of tumor growth following injection of cells) at 600 μg per mouse (MM-121 as a 6 mg/mL solution in PBS) by IP injection every three days. […] Efficacy is determined by comparing tumor growth between the antibody-treated mice and the vehicle control mice and is expressed as the experimental to control ratio of median relative tumor volumes (T/C value). […]
Mice are randomized and therapy begins when a sufficient number of individual tumors have grown to a volume of approximately 200 mm^3. Tumors are measured (L x W) by digital caliper measurement and the tumor volume is calculated using the formula π/6 (W^2×L). […]

| Molecule | phosphorylation of the estrogen receptor in stimulated cells [1] | level of ER phosphorylation relative to estrogen stimulation ([1]; MCF7 cells, heregulin 10 nM vs beta estradiol 100 nM, 30 minutes) | phosphorylation of ErbB3 in stimulated cells [2] | tumor growth during initial treatment [3] | time to letrozole resistance (tumor volume increased to 600 mm^3) ([3]; daily letrozole 10 μg/mouse/day) | tumor volume after acquired letrozole resistance [3] | reduction in the amount of pER ([1]; MCF7 cells pretreated with MM-121 250 nM for 1 hour, heregulin 10 nM for 30 minutes, densitometry normalized to GAPDH) | reduction in the amount of pErbB3 ([2]; MCF7 cells pretreated with MM-121 250 nM for 1 hour, heregulin 10 nM for 30 minutes) | tumor growth [4] |
| --- | --- | --- | --- | --- | --- | --- | --- | --- | --- |
| heregulin: heregulin beta 1 (EGF domain, R&D systems), stimulating ligand | exhibited phosphorylation of both the estrogen receptor and ErbB3 | at least four-fold | exhibited phosphorylation of both the estrogen receptor and ErbB3 | – | – | – | – | – | – |
| N#Cc1ccc(C(c2ccc(C#N)cc2)n2cncn2)cc1 [letrozole] | – | – | – | progressed more slowly | about 14 weeks | continued to increase in volume over time | – | – | – |
| betacellulin: betacellulin (R&D systems), EGF-like stimulating ligand | to a lesser extent (about ⅔ less) | – | to a lesser extent (about ⅔ less) | – | – | – | – | – | – |
| B1 | – | – | – | grew rapidly over the course of 5 weeks | – | continued to increase in volume over time | about ⅔ | about ⅔ | inhibits or stops tumor growth, and in some cases reduces tumor size |
